In patent US20210079109A1 one finds binding ratio, Total RFU and S/N (MFI over no-antibody wells) data, which are given here for five substances.

The target in experiment [1] is human CD63 (human) (UniProt P08962). Put plainly: ECL, U87MG cells; signal < 100 RLU, classed non-binder.
Experiment [2] has the same target. Put plainly: imaging of stained T47D cells, 10 ug/mL antibody.
The target is the same in experiment [3]. The experiment in a line: flow cytometry, HEK293 cells. For orientation: Flow cytometry measures light scatter and fluorescence of single cells or particles in a stream.

Chain of human CD63 (human) (P08962 2-238 limits assumed): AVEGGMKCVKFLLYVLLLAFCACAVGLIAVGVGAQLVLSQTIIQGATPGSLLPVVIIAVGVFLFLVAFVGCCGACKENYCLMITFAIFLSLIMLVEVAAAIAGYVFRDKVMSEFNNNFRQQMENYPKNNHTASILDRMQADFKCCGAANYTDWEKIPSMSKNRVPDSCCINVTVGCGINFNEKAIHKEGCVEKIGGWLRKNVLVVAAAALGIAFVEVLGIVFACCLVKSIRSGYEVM

In the case of Human IgG4 isotype control (antibody), the binding ratio at 3.7 nM vs NIH3T3 in the experiment with human CD63 (human) [1] is 4 fold. In addition, in the experiment with human CD63 (human) [2], the Total RFU at 4C amounted to 138000 RFU and the Total RFU at 37C (2 h) is -80500 RFU.
With Isotype Control 1 (antibody), the S/N (MFI over no-antibody wells) with human CD63 (human) [3] stood at 1.4.
Same read-out and setting: in the case of Isotype Control 2 (antibody) it was 1.5.
In the experiment with human CD63 (human) [2], mIgG1 Isotype control (antibody) registered a Total RFU at 4C of -93900 RFU and a Total RFU at 37C (2 h) of 57400 RFU.
Taken in the same sequence, the figures for mIgG2a Isotype control (antibody) were -73400 RFU and 65400 RFU.
